Source: US6379959B1, “Metalocarboxypeptidase inhibitors and derived molecules used as antitumor agents” (Universitat Autonoma de Barcelona, priority 1996, dated 2002)
Positions of bridges follow the written chain, without caps; N, C: chain ends. No end group written: not given here.

How the values were obtained:
[1] = molecular target: T1, EGF receptors of the Capan-1 cell line (Homo sapiens, UniProt P00533); test: Competitive binding with 125I-EGF to EGF receptors
T1 construct: endogenous in cells; host or cells: Capan-1 (human pancreatic adenocarcinoma)
Protocol: The detailed procedure that was employed is as follows:
1. 1.25×10^5 cells were seed per well in plates of 24 wells which were kept in culture for 48 h in DMEM FBS 10%. Triplicates were put for each concentration of competitor to be tested.
2. 24 h before the test, the full medium of the wells was replaced by 2 mL, per well, of DMEM without fetal serum.
3. The next day, the cells were washed, three times, with cold binding medium.
4. The cells were incubated with 70 μL of binding medium to which the concentrations of the competitor to be tested had been added. […] Afterwards, 40,000 cpm (350 pM) of ^125I-EFG were added. The incubation was done at 4° C. for 5 h.
5. The cells were washed quickly three times with 500 μL of the cold washing solution.
6. They were solubilized through incubation for 30 min at room temperature with the permeabilization solution.
7. The radioactivity in the suspension was determined with a gamma counter. To determine the unspecific binding, the value of unspecific binding was deducted from the total bounded radioactivity.
From the test, the bounded radioactivity for each one of the tested concentrations of unlabeled competitor was determined. […] To determine the percentage, the following formula was applied: [formula]
where B is the amount of specific binding in presence of a specific competitor concentration.
With the aim of determining the kind of binding which is taking place, a pseudo-Hill or Logit-log representation (Pratt, W. B. and Taylor, P. “Principles of Drug Action. The Basis of Pharmacology”. Ed. Churchill Livingstone, N.Y., 1990) was carried out. The data of specific binding percentage are used to calculate the log(P/[100-P]), which is represented versus the logarithm of the competitor concentration.
The resulting slope of the straight line is called pseudo-Hill coefficient.
The fitting has been made using the programme Graphpad Inplot4. A non-linear fitting for competition for two binding sites is made. The logarithm of the competitor concentration has been represented versus the values of Logit-log (FIG. 25).
From the previous fitting, the value of IC50, that is to say, the competitor concentration which inhibits 50% of the specific binding for the two types of binding was determined. Also, the percentage of the two types of binding sites was determined.

p53 = test: Gene expression analysis by Northern transfer, p53 probe; type: cell-based, human; details: for beta counts, p53 probe: 12 days, Capan-1 (control 138)
Protocol: To verify whether the PCI plays any role in signal transduction, studies of gene expression were carried out by Northern transfer. The probes were: β2-microglobulin, p53 and trypsin. The β2-microglobulin is a constitutive gene that is used as a sample loading control in the gel. p53 is a transcription factor which, among other functions, controls the state of the genomic DNA and the cell cycle (Bates, S. & Vousden, K. H. (1996) Curr. Opin. Genet. Develop., 6: 12-19). If the DNA is damaged, p53 induces its repair and, if it is excessively damaged, it provokes programmed cellular death (apoptosis). Trypsin is a marker of pancreatic cells of the acinar type. The trypsin is not expressed by all the tumoral cells and it is believed that it is expressed by the cells with metastatic power and/or invasive power (Fernández, E. et al., (1994) Cancer, 73: 2285-2295). The probes employed are described as follows:
In the first place, 3×10^6 cells of the human pancreatic adenocarcinoma cell line Capan-1 were placed in each one of the 12 flasks of 150 cm^2. […] They were maintained in culture for 12 days period, changing their medium every 4 days, adding fresh PCI. Once the treatment was completed, the cells were trypsinized and the sediment of the cells was kept at −80° C. Afterwards, the extraction of the RNA was carried out.
The quantifying of the hybridized filters with the respective probes was done using a Betascope 601 blot Analyzer counter (Betagen, USA). The counting time was 45 min for the hybridized filter with the probe p53 and β2-microglobuline and 2 h for the trypsin probe.
Assuming that the counts of the β2-Microglobuline are an indication of the total amount of poly(A^+) RNA, the data may be standardized as a percentage of counts of the band compared to the β2-microglobuline counts of the same cells, giving a value which depends on the abundance of the specific mRNA in relation to the total of mRNA.

embryonic cells of mice = details: PCI in low concentrations (5 μg/mL), in vitro; cited from earlier work
[2] = test system: human pancreatic adenocarcinoma cell line Capan-1; test: Flow cytometry analysis of cell cycle phases; type: cell-based; details: 50 µg/mL of PCI
[3] = [PCI] nM 1, 350 pM 125I-EGF, 5 h, 4° C.

## PCI: potato carboxypeptidase inhibitor, isoform IIa, obtained by recombinant DNA techniques in E. coli (SEQ ID NO.2) (EQHADPICNKPCKTHDDCSGAWFCQACWNSARTCGPYVG; disulfide 12-27, 18-34, 8-24)
[1]; High affinity binding site
  % Receptors: 99.7%
[1]; Log [PCI] M −4.33
  Log (P/[100-P]): −0.272
[1]; Log [PCI] M −4.93
  Log (P/[100-P]): −0.2246
[1]; Log [PCI] M −5.83
  Log (P/[100-P]): −0.1873
[1]; Log [PCI] M −6.63
  Log (P/[100-P]): 0,605
[1]; Log [PCI] M −7.63
  Log (P/[100-P]): 0.713
[1]; Log [PCI] M −8.63
  Log (P/[100-P]): 1.205
[1]; Log [PCI] M −9
  Log (P/[100-P]): 1.99
[1]; Low affinity binding site
  % Receptors: 0.3%
[1]; [3]
  Percentage of specific binding: 99%
  Specific binding (cpm): 1597 cpm
[1]; [PCI] nM 2.32
  Percentage of specific binding: 94.14%
  Specific binding (cpm): 1503.5 cpm
[1]; [PCI] nM 23.2
  Percentage of specific binding: 83.78%
  Specific binding (cpm): 1307 cpm
[1]; [PCI] nM 232.8
  Percentage of specific binding: 80.13%
  Specific binding (cpm): 1250 cpm
[1]; [PCI] nM 2328.2
  Percentage of specific binding: 39.38%
  Specific binding (cpm): 621.5 cpm
[1]; [PCI] nM 11641
  Percentage of specific binding: 37.35%
  Specific binding (cpm): 582.6 cpm
[1]; [PCI] nM 46566
  Percentage of specific binding: 34.83%
  Specific binding (cpm): 543.33 cpm
[1]; high affinity receptor
  binding capacity to the receptor of high affinity, times inferior to that of the EGF: 6 times
p53; 1 mg/mL PCI
  higher transcription of p53 in relation to the control group cells (treatment/control): 2.8 times
  beta counts, p53 probe: 882
p53; 1 mg/mL PCI (control 0.1445)
  p53/b2 (counts of one band in relation to those of β2-microglobuline): 0.4040
p53; 10 mg/mL PCI
  higher transcription of p53 in relation to the control group cells (treatment/control): 1.2 times
  beta counts, p53 probe: 1111
Embryonic cells of mice
  tumoral transformation induced by irradiation: inhibits in vitro the tumoral transformation
[2]; 24 h (control 6.4)
  % G2 M: 4.7%
[2]; 24 h (control 14.3)
  % S: 20.4%
[2]; 24 h (control 79.2)
  % G1: 74.9%
[2]; 48 h
  % G1: 85.3%
  % G2 M: 3.7%
  % S: 11%
[2]; 72 h
  % G1: 85.1%
  % G2 M: 4%
  % S: 10.9%
[2]; 96 h
  % G1: 88.5%
  % G2 M: 3.9%
  % S: 7.6%
